According to the supplement of paper PMC10567573:

B1: SPRY1 (parent)
chain: WIHRPGCRCKNSNTVYCKLESCPS

Variants of: B1
Assay: protein stability index of a GFP-peptide fusion (GPS, HEK-293T) (PSI 1-6); higher = more stable
Conditions: c terminus: a fixed tail appended
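Further: lentivirally expressed fusions sorted by FACS into six bins by GFP to DsRed ratio, PSI derived from sequencing read proportions per bin multiplied by bin number.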

Variant | protein stability index
WIHRPGCACKNSNTVYCKLESCPS [R8A] | 3
WIHRPGCWCKNSNTVYCKLESCPS [R8W] | 2.21
WIHRPGCPCKNSNTVYCKLESCPS [R8P] | 2.4
WIHRPGCYCKNSNTVYCKLESCPS [R8Y] | 2.2
WIHRPGCVCKNSNTVYCKLESCPS [R8V] | 2.57
WIHRPGCCCKNSNTVYCKLESCPS [R8C] | 2.25
WIHRPGCHCKNSNTVYCKLESCPS [R8H] | 2.63
WIHRPGCLCKNSNTVYCKLESCPS [R8L] | 2.6
WIHRPGCNCKNSNTVYCKLESCPS [R8N] | 3.28
WIHRPGCDCKNSNTVYCKLESCPS [R8D] | 2.67
WIHRPGCMCKNSNTVYCKLESCPS [R8M] | 2.83
WIHRPGCKCKNSNTVYCKLESCPS [R8K] | 2.68
WIHRPGCECKNSNTVYCKLESCPS [R8E] | 3.33
WIHRPGCRDKNSNTVYCKLESCPS [C9D] | 2.07
WIHRPGCRGKNSNTVYCKLESCPS [C9G] | 1.73
WIHRPGCRIKNSNTVYCKLESCPS [C9I] | 1.17
WIHRPGCRAKNSNTVYCKLESCPS [C9A] | 2.19
WIHRPGCRHKNSNTVYCKLESCPS [C9H] | 1.85
WIDRPGCRCKNSNTVYCKLESCPS [H3D] | 3.37
WIKRPGCRCKNSNTVYCKLESCPS [H3K] | 2.13
WIARPGCRCKNSNTVYCKLESCPS [H3A] | 2.75
WINRPGCRCKNSNTVYCKLESCPS [H3N] | 2.4
WIQRPGCRCKNSNTVYCKLESCPS [H3Q] | 2.5
WIERPGCRCKNSNTVYCKLESCPS [H3E] | 3.78

Variant | protein stability index
WILRPGCRCKNSNTVYCKLESCPS [H3L] | 2.31
WISRPGCRCKNSNTVYCKLESCPS [H3S] | 3.16
WICRPGCRCKNSNTVYCKLESCPS [H3C] | 1.48
WIPRPGCRCKNSNTVYCKLESCPS [H3P] | 2.79
WIMRPGCRCKNSNTVYCKLESCPS [H3M] | 2.52
WIIRPGCRCKNSNTVYCKLESCPS [H3I] | 1.74
WITRPGCRCKNSNTVYCKLESCPS [H3T] | 2.71
WIWRPGCRCKNSNTVYCKLESCPS [H3W] | 1.73
WIRRPGCRCKNSNTVYCKLESCPS [H3R] | 2.44
WIGRPGCRCKNSNTVYCKLESCPS [H3G] | 2.76
WIVRPGCRCKNSNTVYCKLESCPS [H3V] | 1.72
WIYRPGCRCKNSNTVYCKLESCPS [H3Y] | 1.59
WIFRPGCRCKNSNTVYCKLESCPS [H3F] | 1.87
WIHRPFCRCKNSNTVYCKLESCPS [G6F] | 1.7
WIHRPQCRCKNSNTVYCKLESCPS [G6Q] | 2.16
WIHRPACRCKNSNTVYCKLESCPS [G6A] | 2.15
WIHRPDCRCKNSNTVYCKLESCPS [G6D] | 2.62
WIHRPPCRCKNSNTVYCKLESCPS [G6P] | 2.61
WIHRPRCRCKNSNTVYCKLESCPS [G6R] | 2.12
WIHRPMCRCKNSNTVYCKLESCPS [G6M] | 2.16
WIHRPSCRCKNSNTVYCKLESCPS [G6S] | 2.48
WIHRPICRCKNSNTVYCKLESCPS [G6I] | 3.08
WIHRPNCRCKNSNTVYCKLESCPS [G6N] | 2.37
WIHRPCCRCKNSNTVYCKLESCPS [G6C] | 2

Variant | protein stability index
WIHRPKCRCKNSNTVYCKLESCPS [G6K] | 2.32
WIHRPHCRCKNSNTVYCKLESCPS [G6H] | 2.06
WIHRPTCRCKNSNTVYCKLESCPS [G6T] | 3.09
WIHRPYCRCKNSNTVYCKLESCPS [G6Y] | 2.26
WIHRPWCRCKNSNTVYCKLESCPS [G6W] | 2.69
WIHRPVCRCKNSNTVYCKLESCPS [G6V] | 1.93
WIHRPECRCKNSNTVYCKLESCPS [G6E] | 3.01
WIHRPLCRCKNSNTVYCKLESCPS [G6L] | 1.97
IIHRPGCRCKNSNTVYCKLESCPS [W1I] | 3
AIHRPGCRCKNSNTVYCKLESCPS [W1A] | 3.52
LIHRPGCRCKNSNTVYCKLESCPS [W1L] | 3.54
GIHRPGCRCKNSNTVYCKLESCPS [W1G] | 3.65
EIHRPGCRCKNSNTVYCKLESCPS [W1E] | 3.75
KIHRPGCRCKNSNTVYCKLESCPS [W1K] | 3.97
RIHRPGCRCKNSNTVYCKLESCPS [W1R] | 3.79
MIHRPGCRCKNSNTVYCKLESCPS [W1M] | 2.88
TIHRPGCRCKNSNTVYCKLESCPS [W1T] | 3.45
VIHRPGCRCKNSNTVYCKLESCPS [W1V] | 3.03
NIHRPGCRCKNSNTVYCKLESCPS [W1N] | 4.04
FIHRPGCRCKNSNTVYCKLESCPS [W1F] | 2.04
DIHRPGCRCKNSNTVYCKLESCPS [W1D] | 4.38
QIHRPGCRCKNSNTVYCKLESCPS [W1Q] | 3.23
CIHRPGCRCKNSNTVYCKLESCPS [W1C] | 3.78
SIHRPGCRCKNSNTVYCKLESCPS [W1S] | 4.09

Variant | protein stability index
PIHRPGCRCKNSNTVYCKLESCPS [W1P] | 3.5
YIHRPGCRCKNSNTVYCKLESCPS [W1Y] | 2.13
HIHRPGCRCKNSNTVYCKLESCPS [W1H] | 3.72
WIHSPGCRCKNSNTVYCKLESCPS [R4S] | 3.07
WIHLPGCRCKNSNTVYCKLESCPS [R4L] | 3.06
WIHMPGCRCKNSNTVYCKLESCPS [R4M] | 2.85
WIHKPGCRCKNSNTVYCKLESCPS [R4K] | 2.34
WIHCPGCRCKNSNTVYCKLESCPS [R4C] | 2.77
WIHHPGCRCKNSNTVYCKLESCPS [R4H] | 3.3
WIHIPGCRCKNSNTVYCKLESCPS [R4I] | 2.82
WIHQPGCRCKNSNTVYCKLESCPS [R4Q] | 4.23
WIHWPGCRCKNSNTVYCKLESCPS [R4W] | 1.97
WIHEPGCRCKNSNTVYCKLESCPS [R4E] | 3.48
WIHYPGCRCKNSNTVYCKLESCPS [R4Y] | 3.18
WIHDPGCRCKNSNTVYCKLESCPS [R4D] | 3.73
WIHAPGCRCKNSNTVYCKLESCPS [R4A] | 2.51
WIHFPGCRCKNSNTVYCKLESCPS [R4F] | 2.72
WIHTPGCRCKNSNTVYCKLESCPS [R4T] | 2.67
WIHPPGCRCKNSNTVYCKLESCPS [R4P] | 3.03
WIHGPGCRCKNSNTVYCKLESCPS [R4G] | 3.95
WIHVPGCRCKNSNTVYCKLESCPS [R4V] | 3.11
WIHNPGCRCKNSNTVYCKLESCPS [R4N] | 3.43
